Measurements as given in PMC5052650.

Target: ARTD2 N+WGR fragment (human)
Test: SAXS; proteins without DNA; measured without chromatography at three different concentrations; MW from Porod volume divided by 1.7

ARTD2 N+WGR fragment (domain or fragment), sequence (Q9UGN5 99-206): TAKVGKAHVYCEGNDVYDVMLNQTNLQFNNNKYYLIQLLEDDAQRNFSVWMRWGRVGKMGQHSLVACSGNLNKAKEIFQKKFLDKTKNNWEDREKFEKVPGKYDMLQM

## ARTD2 N+WGR fragment (domain or fragment)
  stoichiometry N: 2
